Assay results published in publication PMC4491694, “New Variants of Tomato Thymidine Kinase 1 Selected for Increased Sensitivity of E. coli KY895 towards Azidothymidine” (Cancers, 2015).
Changes are numbered by the printed parent chain. In names and notes the source's numbering stands.

Experiments:
ToTK1 [1] = target: T1, ToTK1 (Solanum lycopersicum, UniProt Q71F77); experiment: nucleoside kinase assay, 3H-labelled nucleoside substrate; assay type: biochemical; details: read-out: IC50 dTTP (μM) / dThd
T1 construct: full length, 234 residues; GST fusion from pGEX-2T, thrombin-cleaved, recombinant
T1 sequence (Q71F77 1-234): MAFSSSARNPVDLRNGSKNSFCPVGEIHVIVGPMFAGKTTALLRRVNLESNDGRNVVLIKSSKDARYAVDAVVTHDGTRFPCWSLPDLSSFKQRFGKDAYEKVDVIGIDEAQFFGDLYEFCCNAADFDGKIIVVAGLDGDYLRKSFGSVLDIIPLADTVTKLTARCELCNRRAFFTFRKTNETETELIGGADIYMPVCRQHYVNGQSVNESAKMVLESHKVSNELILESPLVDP
Description: (§1) nucleoside kinase assay, 3H-labelled nucleoside substrate on ToTK1

ToTK1 [2] = target: T2, ToTK1 (Solanum lycopersicum, UniProt Q71F77, N123S/T78A); experiment: as above; assay type: biochemical; details: read-out: IC50 dTTP (μM) / dThd
T2 construct: full length, 234 residues; GST fusion from pGEX-2T, thrombin-cleaved, recombinant
T2 sequence (Q71F77 1-234 T78A/N123S): T1 sequence (Q71F77 1-234) with T78A, N123S
Description: as §1

ToTK1 [3] = target: T2, ToTK1; experiment: nucleoside kinase assay, 3H-labelled nucleoside substrate; Ki equals IC50; assay type: biochemical; details: read-out: dThd
Description: nucleoside kinase assay, 3H-labelled nucleoside substrate; Ki equals IC50 on ToTK1

ToTK1ΔC25 [4] = target: T3, ToTK1ΔC25 (Solanum lycopersicum, UniProt Q71F77); experiment: nucleoside kinase assay, 3H-labelled nucleoside substrate; assay type: biochemical; details: read-out: IC50 dTTP (μM) / dThd
T3 construct: last 25 C-terminal residues of the 234-residue protein deleted (residues 210-234, borders derived); GST fusion from pGEX-2T, thrombin-cleaved, recombinant
T3 sequence (Q71F77 1-209): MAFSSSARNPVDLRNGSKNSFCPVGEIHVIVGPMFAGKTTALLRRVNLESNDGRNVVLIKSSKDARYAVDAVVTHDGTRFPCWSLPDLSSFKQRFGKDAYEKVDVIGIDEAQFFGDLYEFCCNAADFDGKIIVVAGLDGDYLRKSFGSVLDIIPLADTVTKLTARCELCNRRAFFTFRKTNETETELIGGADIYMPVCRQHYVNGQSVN
Description: nucleoside kinase assay, 3H-labelled nucleoside substrate on ToTK1ΔC25

ToTK1 [5] = target: T4, ToTK1 (Solanum lycopersicum, UniProt Q71F77, T78A/N123S); experiment: nucleoside kinase assay, 3H-labelled nucleoside, Michaelis-Menten fit; assay type: biochemical; details: labelled compound (3H)
T4 construct: full length, 234 residues; GST fusion from pGEX-2T, thrombin-cleaved, recombinant
T4 sequence (Q71F77 1-234 T78A/N123S): T1 sequence (Q71F77 1-234) with T78A, N123S
Description: (§2) nucleoside kinase assay, 3H-labelled nucleoside, Michaelis-Menten fit on ToTK1

ToTK1 [6] = target: T1, ToTK1; experiment: as above; assay type: biochemical; details: labelled compound (3H)
Description: as §2

ToTK1ΔC25 [7] = target: T3, ToTK1ΔC25; experiment: as above; assay type: biochemical; details: labelled compound (3H)
Description: (§3) nucleoside kinase assay, 3H-labelled nucleoside, Michaelis-Menten fit on ToTK1ΔC25

[8] = substrate: O=c1ccn([C@H]2C[C@H](O)[C@@H](CO)O2)c(=O)[nH]1; experiment: as above; assay type: biochemical, Solanum lycopersicum; details: labelled compound (3H)
Description: as §3

[9] = substrate: O=c1ccn([C@H]2C[C@H](O)[C@@H](CO)O2)c(=O)[nH]1; experiment: as above; assay type: biochemical, Solanum lycopersicum; details: labelled compound (3H); remark: listed apart in the source
Description: as §2

[10] = substrate: Cc1cn([C@H]2C[C@H](O)[C@@H](CO)O2)c(=O)[nH]c1=O; experiment: as above; assay type: biochemical, Solanum lycopersicum; details: labelled compound (3H)
Description: as §2

In the case of Cc1cn([C@H]2C[C@H](O)[C@@H](COP(=O)(O)OP(=O)(O)OP(=O)(O)O)O2)c(=O)[nH]c1=O [dTTP], the IC50 (ToTK1 [1]) is reported as 49.1 ± 1.7 µM, the IC50 (ToTK1 [2]) is reported as 55.6 ± 5.2 µM and the Ki (ToTK1 [3]) is reported as 55.6 µM. For the same molecule, the IC50 (ToTK1ΔC25 [4]) was 65.2 ± 6 µM.

With Cc1cn([C@H]2C[C@H](N=[N+]=[N-])[C@@H](CO)O2)c(=O)[nH]c1=O [AZT, 3-azido-2,3-dideoxythymidine] the Km (ToTK1 [5]) was 1.1 ± 0.1 µM, the Km (ToTK1 [6]) was 1.2 ± 0.04 µM and the Km (ToTK1ΔC25 [7]) was 2 ± 0.06 µM.

B1: ToTK1ΔC25 (Solanum lycopersicum) (protein)
chain: T3 sequence (Q71F77 1-209)
notes: last 25 C-terminal residues of the 234-residue protein deleted (residues 210-234, borders derived); GST fusion from pGEX-2T, thrombin-cleaved, recombinant
B1 was tested, and the Km [8] was 27 ± 3.3 µM, the Vmax [8] was 4 µmol/min/mg and the kcat [8] was 1.54 s⁻¹. For the same molecule, the kcat/Km [8] was 57000 M⁻¹ s⁻¹.

B2: ToTK1 (Solanum lycopersicum; N123S/T78A) (protein)
chain: T1 sequence (Q71F77 1-234) with T78A, N123S
notes: full length, 234 residues; GST fusion from pGEX-2T, thrombin-cleaved, recombinant
For B2, the Km [9] was 15 ± 3.3 µM, the Vmax [9] was 1.9 µmol/min/mg and the kcat [9] was 0.82 s⁻¹. It also gave a kcat/Km [9] of 54700 M⁻¹ s⁻¹, a Km [10] of 1.3 ± 0.36 µM and a Vmax [10] of 1.6 µmol/min/mg. For the same molecule, the kcat [10] was 0.69 s⁻¹ and the kcat/Km [10] was 531000 M⁻¹ s⁻¹.

B3: ToTK1 (Solanum lycopersicum) (protein)
chain: T1 sequence (Q71F77 1-234)
notes: as for B2
B3 gave a Km [9] of 17 ± 0.5 µM, a Vmax [9] of 3.4 µmol/min/mg and a kcat [9] of 1.47 s⁻¹. For the same molecule, the kcat/Km [9] was 86500 M⁻¹ s⁻¹.
